Values belong to the substance of their own block, whether it stands above or below them.
Key:
[1] = molecular target: CD2 antigen on human peripheral blood CD14+ myeloid cells / primary dendritic cells (and CD3+ T cells) (human) (UniProt P06729); experiment: cell-based or functional assay
[2] = molecular target: CD2 antigen on human peripheral blood CD14+ myeloid cells / primary dendritic cells (and CD3+ T cells) (human) (UniProt P06729); experiment: flow cytometry, anti-T113 staining after 30 min pre-incubation with anti-T112, 4 C, Mg++/Ca++-free medium
[3] = molecular target: CD2 antigen on human peripheral blood CD14+ myeloid cells / primary dendritic cells (and CD3+ T cells) (human) (UniProt P06729); experiment: flow cytometry, staining of enriched human CD14+ myeloid cells

Sequence of UniProt P06729 (P06729 25-351): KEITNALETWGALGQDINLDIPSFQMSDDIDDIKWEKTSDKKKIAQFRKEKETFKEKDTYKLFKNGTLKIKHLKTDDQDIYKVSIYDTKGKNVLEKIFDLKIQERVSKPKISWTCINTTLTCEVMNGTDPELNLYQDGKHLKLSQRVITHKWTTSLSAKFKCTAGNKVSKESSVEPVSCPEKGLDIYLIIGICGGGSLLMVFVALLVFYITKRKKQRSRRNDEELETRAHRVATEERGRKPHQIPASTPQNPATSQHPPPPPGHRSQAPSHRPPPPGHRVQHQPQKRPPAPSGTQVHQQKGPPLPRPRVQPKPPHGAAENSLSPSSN

- IL-1β in DC/CHO-58 cocultures compared with DC/CHO-NEO [1]: 2 fold
- IL-12 in DC/CHO-58 cocultures compared with DC/CHO-NEO [1]: 26 fold
- level of HLA-DR on primary dendritic cells cocultured with CHO-58 [1]: > 2.5 fold
Substance: CD58 expressed on transfected CHO cells (CHO-58) (from UniProt P19256 29-250) (ligand)

- HLA-DQ level on primary dendritic cells (anti-T113 added to anti-T112-enriched cells) [1]: 9 fold
- HLA-DR level on primary dendritic cells (anti-T113 added to anti-T112-enriched cells) [1]: 2 fold
- [Ca++]i in CD3+ T cells above baseline (anti-T112 and anti-T113 cross-linked with goat anti-mouse IgG) [1]: 180%
- high expressing CD86 population of primary dendritic cells (anti-T112/3 pair) [1]: 65%
- increase in [Ca++]i in CD14+ Mx (anti-T113 added after anti-T112) [1]: 69%
- increase in [Ca++]i in CD14+ Mx above baseline (anti-T112 and anti-T113 cross-linked with goat anti-mouse IgG) [1]: 95%
- level of CD40 on primary dendritic cells (anti-T112/3 pair) [1]: 2 fold
- level of CD54 on primary dendritic cells (baseline 14%) [1]: 9 fold
- level of CD80 on primary dendritic cells (anti-T112/3 pair) [1]: 3 fold
- levels of HLA-DR and HLA-DQ on primary dendritic cells (anti-T112/3 pair against control) [1]: 2 to 3 fold
- percent of CD14+ Mx that were CD2+ [2]: 20%
Substance: anti-T113 monoclonal antibody
- CD50 MFI of primary dendritic cells, after CD2 engagement [1]: 90 MFI
- CD50 MFI of primary dendritic cells, control [1]: 148 MFI
- MFI of CD50^hi (so in the source) primary dendritic cells [1]: 53%
- percent CD50^hi of primary dendritic cells, after CD2 engagement [1]: 76%
- percent CD50^hi of primary dendritic cells, control [1]: 96%
- percentage of CD50^hi (so in the source) of primary dendritic cells [1]: 21%

- IL-1β release, monocyte-derived dendritic cells against primary dendritic cells [1]: 75 fold
- IL-12 release, monocyte-derived dendritic cells against primary dendritic cells [1]: 100 fold
- allogeneic naive CD4 T cell proliferation induced by antibody-pulsed primary dendritic cells ([3H]thymidine) [1]: 2.5 fold
- percent of CD14+ Mx on which CD2 was identified [3]: 30%
Substance: anti-T111 monoclonal antibody

- percent of CD14+ Mx on which CD2 was identified [3]: 37%
Substance: anti-T112 monoclonal antibody

— patent publication US20040038398A1
